Consider 17 sequences from the DeepSol protein solubility set.

This data set can be described thus: soluble on expression in E. coli; label from the status in PepcDB or PDB records.
Turning to “MQQVFKKPVSLKDVQTHFCPGCHHGTFHRLVAEAMDEFGVQKKTIGVASVGCSVFLYGYFDIDVVEAPHGRAPAVATGVKRARPDAFVFTYQGDGDLAAIGTSEIIHAANRGEDITVIFVNNTTYGMTGGQMAPTTLVGQRTSTSPYGRKNEKDGSPIRMAELLAQLEGVAFSARVAVNNPKNLMDAKRQIKKAFRYQAEGKGFSFIEALSSCPTNWGMDALAANERVGTEMCA”, the “soluble on expression in E. coli” value is listed as “not soluble”.
To “MGSDKIHHHHHHMTVRDFHYYEPAEGHGLSHNPLNALVAPRPIGWISSRDAQGRVNLAPYSFFNAFNYDPPIIGFSSIAWKDSVQNASETREFTWNLVTRELGDQMNQTSSPLPHGEDEFQFAGLTAVAGRKVNVPRVGESRAAMECKVIDIVQFRNTAGEKVGGWLVLGEVVAVYIDKTLLKDGVYQTAEAYPIMRSGGLNDYVQVSPDNVFQIARLAGASSPSSHGKG” belongs “not soluble”.
Under “MVAPSFPLFNLPQKNLKDVFCNMSVIQQTCISLISEKTRNLVREFHIFKQLQVCLDFIFLPDYHFYLKGSAKFIFIPHNRKFIARSSSGEHSNYSVPQFDAKSWLKHLIYIFNVTEIHSLRSRFFDWDLREPRLKMPKECLKNLKILNLSIGFTNKISLVVELYSAFQHIKKFSLRQYSHKPLDSTLLLELRHLLSKTNQQLCLNINLPLNELLLTSCSSIDIHRTQLTDKDINVFLKHWFAGLKPELEHFRVRKDGPAFNQKTILKGIPHEFASIGRKFKLFEMDSQVGGIDIDLGQDIKATLVFNHKPGIADFSVAVHNSKYFFC” stands “not soluble”.
To “GPHMPEQYRYTLPVKAGEQRLLGELTGAACATLVAEIAERHAGPVVLIAPDMQNALRLHDEISQFTDQMVMNLADWETLPYDSFSPHQDIISSRLSTLYQLPTMQRGVLIVPVNTLMQRVCPHSFLHGHALVMKKGQRLSRDALRTQLDSAGYRHVDQVMEHGEYATRGALLDLFPMGSELPYRLDFFDDEIDSLRVFDVDSQRTLEEVEAINLLPAHEFPTDKAAIELFRSQWRDTFEVKRDPEHIYQQVSKGTLPAGIEYWQPLFFSEPLPPLFSYFPANTLLVNTGDLETSAERFQADTLARFENRGVDPMRPLLPPQSLWLRVDELFSELKNWPRVQLKTEHLPTKAANANLGFQKLPDLAVQAQQKAPLDALRKFLETFDGPVVFSVESEGRREALGELLARIKIAPQRIMRLDEASDRGRYLMIGAAEHGFVDTVRNLALICESDLLGERVARRRQDSRRTINPDTLIRNLAELHIGQPVVHLEHGVGRYAGMTTLEAGGITGEYLMLTYANDAKLYVPVSSLHLISRYAGGAEENAPLHKLGGDAWSRARQKAAEKVRDVAAELLDIYAQRAAKEGFAFKHDREQYQLFCDSFPFETTPDQAQAINAVLSDMCQPLAMDRLVCGDVGFGKTEVAMRAAFLAVDNHKQVAVLVPTTLLAQQHYDNFRDRFANWPVRIEMISRFRSAKEQTQILAEVAEGKIDILIGTHKLLQSDVKFKDLGLLIVDEEHRFGVRHKERIKAMRANVDILTLTATPIPRTLNMAMSGMRDLSIIATPPARRLAVKTFVREYDSMVVREAILREILRGGQVYYLYNDVENIQKAAERLAELVPEARIAIGHGQMRERELERVMNDFHHQRFNVLVCTTIIETGIDIPTANTIIIERADHFGLAQLHQLRGRVGRSHHQAYAWLLTPHPKAMTTDAQKRLEAIASLEDLGAGFALATHDLEIRGAGELLGEEQSGSMETIGFSLYMELLENAVDALKAGREPSLEDLTSQQTEVELRMPSLLPDDFIPDVNTRLSFYKRIASAKTENELEEIKVELIDRFGLLPDPARTLLDIARLRQQAQKLGIRKLEGNEKGGVIEFAEKNHVNPAWLIGLLQKQPQHYRLDGPTRLKFIQDLSERKTRIEWVRQFMRELEENAIA” belongs “soluble”; to “CPECDEPLHYIRDAVSEKLEYIPAHFVVNRYVRPQYSCPCCQKVFSGEMPAHILPKSAVEPSVIAQVIINKYGDHLPLYRQQQVFARSDVGLPVSSMADMVGAAGAALSPLAALLHRELINRPVVHADETTLKILNTKKGGKSCSGYLWAYVSGERTGPSVVCFDCRTGRSHEYPENWLQGWGGTLVVDGHKAYRTLANKV”, “not soluble”; to “MSLNKESLKEYLSSRYQGWSSFLNNVIFPIFGEDDFEDGFETELLESQPERRQLAEATGIRSIKQVGMMYVGVEPLQIFDVTVSDRVMMEHNRVNIQRLIRAVMDQFSCAFMLFHYEDDTRWDWRFTYCRKSGNKEESTDSKRYTFLLGPGQSCRTATDNFIALYDKRNSLEIKDIENAFNVEALSKEFFGKYKAQYEAFVNYMVDPTNGMRQHFIDTGFDHTGMAADKIRDREEKPIRDYVKKLLGRIVFLHFLQKKGWLGVPASKEWGEGDRDFMLNIFKNANERQKENFLDDILEDLFTEGLDRNRSDQGDLYDTKVEGFRNCRIPYLNGGLFERDILDKKPSHFPASYFNGLLTMLSQYNFTIDENDPNDAEVGVDPEMLGRIFENLLEDNKDKGAFYTPKEIVQYMCRESLIAYLQTDMREEDKECIRQFVTTHDASQLGELKEYIDQKLYDVKICDPAIGSGAFPMGLLRELFFCRSAIEPNIVENAANIKRHIIQNNIYGVDIERGAVDIARLRFWLSLIVDEKSPEALPNLDFKIMQGNSLLEQYKGVDLSTEGHHHHHH”, “soluble”.
As for “MPLFKRRDGSGPAPNATIREKYDFRDVLGTGAFSKVFLAESKSDAGQMYAVKCIDKKALKGKEESLENEIKVLRKLRHNNIVQLFDTYDEKQFVYLVMELVTGGELFDRIVAKGSYTEQDASNLIRQVLEAVGFMHDNGVVHRDLKPENLLYYNQDEDSKIMISDFGLSKTEDSGVMATACGTPGYVAPEVLQQKPYGKAVDVWSIGVIAYILLCGYPPFYDESDANLFAQIIKGEYEFDAPYWDQISDSAKDFITHLMCCDPEARFTCQDALSHPWISGNTAYTHDIHGTVAVHLKKSLAKRNWKKAYNAAAAIRQLQMLRLSSNSNRLQKQASQQQPEPPTPAFHA”, the “soluble on expression in E. coli” value was “soluble”.
Under “MDNFSLLTTPWLPVRFKDGSTGKLAPVDLADENVVDIAATRADLQGAAWQFLLGLLQCSIAPKRYKNWEDIWFDGLHADVLHKALAPLEHAFQFGAETPSFMQDFEPLSGEKVSIASLLPEIPGAQTTKFNKDHFVKRGVTERFCPHCAALALFSLQLNAPAGGKGYRTGLRGGGPLTTLVELQEYQGERQTPLWRKLWLNVMPQDTADLPLPDQCDATVFPWLAATRTSEQANAVTTPEQVNKLQAYWGMPRRIRLDFATLQSGCCDICGAESDELLGFMTVKNYGVNYDGWRHPLTPYRAPVKDQNAFFSVKPQPGGLIWRDWLGLSQNNQTEANYESPAQVVKVFNARSLTDVKAGIWGFGADFDNMKIRCWYEHHFPLLMTEGLIPDLRKAVQTAARLLSLLRSALKEAWFADAKGARGDFSFIDIDFWNLTQGRFLNLIHDLENGHKPDERLNKWQRELWLFTRHYFDDHVFTNPYESSDLERIMTARKKYFTTSAEKQSAKAAKAKKQEAAE” stands “not soluble”.
To “MSLRSIPSALQAKLDSGATTLARCWIVTRRDGVVMGFTDHDRDLTIGGVLCRAATGFTASEATSRFDLAVDGGEISGAFSDDSLSEADLAAGRYDAAGVATWLVDWSDVSLRIMIARGTIGEVRREGAAFTAELRGLADALAQDSGRLFTARCGVDLGDGKCRVDLASSAFRRSGTVTAVEGTSIVAVSGMSGLAAGWFTAGRLNWTGGANAGLAIEVKQHRVVAGVVRLSLWRAMAEPIAIGDSFVVTAGCDKSFTTCRDRFANTSNFRGFPQIPGNDFVVSYPLPGSPDNGNGSKALEGHHHHHH” belongs “soluble”; to “MARTNLQFANLELFVDQLTGAMTFTRTSLLTAAQGALVTRFAEIDGRVKKNLDRVLAAFRQHRLGVHHFSSMTGYGHGDLGREVLDRVFAQVMGAEAALVRVQFVSGTHAIATALFGVLRPGDELISLAGPPYDTLEEVIGLRGQGQGSLKDFGIHYRELPLLASGEPDWGAIATCVQPQTRMVLIQRSCGYTWRPSLSLEDIGKMIQLIKSQNPDVVCFVDNCYGEFVETQEPPHVGADLIAGSLIKNPGGTIATAGGYLAGRADLIEQASYRLTAPGIGHEGGATFDQHRLLFQGLFLAPQMVGEALKCAHLLAYVFDELGYPVNPAPLSRRRDVIQAVQLGSPEKLIAFCRILQRYSPVGSYLDPVPAPMPGYADDLVMAGGTFIDGSTSELSADGPLRPPYIVFCQGGTHHTHMALILEALLEAQVFLEHHHHHH”, “not soluble”; to “MGHHHHHHSHMGTNDEDELSLGLPTELKRKKEQLDGGHRPSKETQSAAGLTLPLNSDQTFHLMSNLAGDVITAAVTAAIKDQLEGVQQALSQAAPIPEEDTDTEEGDDFELLDQSELDQIESELGLTQDQEAEAQQNKKSSGFLSNLLGGH”, “soluble”.
To “MEKVQSISNGTNSISYTLTRSRRKTVGIRITENGEVKVAAPLNIPDRQLKDIILKKLPWILRKQEELRKICEESRLENKFADGETFLYLGKEYTLRIAKGVLPEGVNLEENYIVVAADETKVSVNGPQYIRNVLKNFYVNQFVDIAKTRMDFFSPKIGVCPRKLTVREQKTRWGSCSSKGNISLNWKLVMAPMEVIDYVIVHELCHMKEMNHSKNYWNIVKSIIPDFELRRKWLKDNGHRLLM” belongs “soluble”; to “MATSRFQAFLNSPIGPKTTHFWGPIANWGFVAAGLVDMQKPPEMISGNMSSAMCVYSALFMRFAWMVQPRNYLLLACHASNETVQLYQLSRWARAQGYLSSKKEEEKPSQ”, “not soluble”.
On to “MGFKRLLASLGAGGASVETVLTEVNVVPGGVVQGEVRIQGGSVNQAIEGLSVGLQAKVEVEGHDDQEYKQDIEFAKLSLGGAFELQAGAVHAVPFGLEIPWETPITMIDGQALRGMNIGVTTELEIARAVDSGDLDPVNVHPLPAQKAILDAFVQLGFRFKNADMERGHIRGTRQRLPFYQEIEFFPPSQYRGLNQVELSFVADDREMDVILEMDKKPGLFSEGSDSYRSFQVGLNDFQGTDWTAYLHQWLSEVGSKRSWF”, for which the “soluble on expression in E. coli” value was “not soluble”.
Under “MIKRYTCPNGVRIVLENNPTVRSVAIGVWIGTGSRHETPEINGISHFLEHMFFKGTSTKSAREIAESFDRIGGQVNAFTSKEYTCYYAKVLDEHANYALDVLADMFFHSTFDENELKKEKNVVYEEIKMYEDAPDDIVHDLLSKATYGNHSLGYPILGTEETLASFNGDSLRQYMHDYYTPDRVVISVAGNISDSFIKDVEKWFGSYEAKGKATGLEKPEFHTEKLTRKKETEQAHLCLGFKGLEVGHERIYDLIVLNNVLGGSMSSRLFQDVREDKGLAYSVYSYHSSYEDSGMLTIYGGTGANQLQQLSETIQETLATLKRDGITSKELENSKEQMKGSLMLSLESTNSKMSRNGKNELLLGKHKTLDEIINELNAVNLERVNGLARQLFTEDYALALISPSGNMPS” stands “not soluble”.
Under “MGSDKIHHHHHHMGLLAGVEISDVPLKKIVTVCLAVLVAGCAGPQTQELLGSAIVAAPVTEIAGNHSIFIATTRKKSDDPNKVFDGERSATLNYARVNVTVPGLHQTGQIERRSRGKSDDPAKYFMASEVVGYDTQPKFSSALNADIAARGGRVMVFVHGYNTGFDDAVYRLTQIVHDSGYPGTPVLFSWASGAKTTDYVYDKESASAARDQLEVTLRMLQQSGARRIDIVAHSMGTWVTMETLRQMAISGDRDLGGKLGDVVLASPDIDVDVFKSQMRRYGKPDKPFILLLSDDDRALRLSGLIAGSRPRVGDYKDAADLASYGVTVVDLSEVKGSDSFNHTKFADNPVLVKMIGQRLREDDGFASDRDVTDRISLLGQ” stands “not soluble”; under “MGSDKIHHHHHHLDFRLLRYFVAVAEELHLARAAERLGIEQSPVSRAMRDLESQLGVQLFDRSTRLTRLTWAGQVFLGECRRVMATVEQAVKSAKAAAQGYQGHLRIAICDSLAQPRIATLLARSREEEPELEIRVFELPFAQQLKMLHDDLLDIGFALSNAVHDGLVAEPVWTDPLSVIVPARHPLLAHVQVPLPEALKFPLVLCHPESGSGCRHQIQALLQDAGTPLKLVDEVTSLGVMLTLVGAGYGIGFAIASQVQTLQRPDISIRPLAGTPPMLSTYLLRRRGEPSEPMRRFIERVKDGAAPVDDEPVL”, “not soluble”.
